Data taken from patent US20220089743A1 (Chugai, published 2022).
Changes are numbered by the printed parent chain. Where two headings read alike, the source gives them in different places.

Assays:
[1] = target: HLA-DQ2.2 on HBBB2.2 cells loaded with 33 mer gliadin peptide (human; wheat); assay: cell-based or functional assay
[2] = target: T1, HLA-DQ2.5 on IHW09023 cells loaded with gamma 4d gliadin peptide (human; wheat); assay: cell-based or functional assay
[3] = target: T2, HLA-DQ2.5 on IHW09023 cells loaded with gamma 3 gliadin peptide (human; wheat); assay: cell-based or functional assay
[4] = target: T3, HLA-DQ2.5 on IHW09023 cells loaded with 33 mer gliadin peptide (human; wheat); assay: cell-based or functional assay
[5] = target: T4, HLA-DQ2.5 on IHW09023 cells loaded with gamma 2 gliadin peptide (human; wheat); assay: cell-based or functional assay
[6] = target: T5, HLA-DQ2.5 on IHW09023 cells loaded with omega1/2 gliadin peptide (human; wheat); assay: cell-based or functional assay
[7] = target: T6, HLA-DQ2.5 on IHW09023 cells loaded with BC hordein peptide (human; barley); assay: cell-based or functional assay
[8] = target: T7, HLA-DQ2.5 on IHW09023 cells loaded with gamma 1 gliadin peptide (human; wheat); assay: cell-based or functional assay
[9] = target: T8, HLA-DQ2.5 on IHW09023 cells loaded with gamma 4a gliadin peptide (human; wheat); assay: cell-based or functional assay
[10] = target: T1, HLA-DQ2.5 on IHW09023 cells loaded with …; assay: cell-based or functional assay; remark: listed apart in the source
[11] = target: T2, HLA-DQ2.5 on IHW09023 cells loaded with …; assay: cell-based or functional assay; remark: listed apart in the source
[12] = target: T3, HLA-DQ2.5 on IHW09023 cells loaded with …; assay: cell-based or functional assay; remark: listed apart in the source
[13] = target: T4, HLA-DQ2.5 on IHW09023 cells loaded with …; assay: cell-based or functional assay; remark: listed apart in the source
[14] = target: T5, HLA-DQ2.5 on IHW09023 cells loaded with …; assay: cell-based or functional assay; remark: listed apart in the source
[15] = target: T6, HLA-DQ2.5 on IHW09023 cells loaded with …; assay: cell-based or functional assay; remark: listed apart in the source
[16] = target: T7, HLA-DQ2.5 on IHW09023 cells loaded with …; assay: cell-based or functional assay; remark: listed apart in the source
[17] = target: T8, HLA-DQ2.5 on IHW09023 cells loaded with …; assay: cell-based or functional assay; remark: listed apart in the source
HLA-DQ5.1 on Ba/F3 cells = target: T9, HLA-DQ5.1 on Ba/F3 cells (human, limits assumed); assay: FACS, Ba/F3 cells; raw MFI
T9 construct: whole, on cells; also called Ba/F3-HLA-DQ5.1
T9 MHC II alpha: not shown
T9 MHC II beta: not shown

HLA-DR on Ba/F3 cells = target: T10, HLA-DR on Ba/F3 cells (human, UniProt P01903 26-216; P79483 30-227, limits assumed); assay: FACS, Ba/F3 cells; raw MFI
T10 construct: whole, on cells; also called Ba/F3-HLA-DR
T10 MHC II alpha: not shown
T10 MHC II beta: not shown

HLA-DQ6.3 on Ba/F3 cells = target: T11, HLA-DQ6.3 on Ba/F3 cells (human, UniProt P01920 33-230, limits assumed); assay: FACS, Ba/F3 cells; raw MFI
T11 construct: whole, on cells; also called Ba/F3-HLA-DQ6.3
T11 MHC II alpha: not shown
T11 MHC II beta: not shown

HLA-DP on Ba/F3 cells = target: T12, HLA-DP on Ba/F3 cells (human, UniProt P20036 29-222; P04440 30-225, limits assumed); assay: FACS, Ba/F3 cells; raw MFI
T12 construct: whole, on cells; also called Ba/F3-HLA-DP

HLA-DQ2.5 on Ba/F3 cells = target: T13, HLA-DQ2.5 on Ba/F3 cells (human, UniProt P01909 24-216, limits assumed); assay: FACS, Ba/F3 cells; %MFI with IC17dK 0 and DQN0139bb 100
T13 construct: whole, on cells; MHC class II without a fused peptide; also called Ba/F3-HLA-DQ2.5

HLA-DQ2.2 on Ba/F3 cells = target: T14, HLA-DQ2.2 on Ba/F3 cells (human, UniProt P01909 24-216, limits assumed); assay: as above
T14 construct: whole, on cells; also called Ba/F3-HLA-DQ2.2
T14 MHC II alpha: not shown
T14 MHC II beta: not shown

HLA-DQ7.5 on Ba/F3 cells = target: T15, HLA-DQ7.5 on Ba/F3 cells (human, UniProt P01909 24-216; P01920 33-230, limits assumed); assay: as above
T15 construct: whole, on cells; also called Ba/F3-HLA-DQ7.5

HLA-DQ8 on Ba/F3 cells = target: T16, HLA-DQ8 on Ba/F3 cells (human, UniProt P01909 24-216; P01920 33-230, limits assumed); assay: as above
T16 construct: whole, on cells; also called Ba/F3-HLA-DQ8
T16 MHC II alpha: not shown
T16 MHC II beta: not shown

HLA-DQ7.3 on Ba/F3 cells = target: T17, HLA-DQ7.3 on Ba/F3 cells (human, UniProt P01909 24-216; P01920 33-230, limits assumed); assay: as above
T17 construct: whole, on cells; also called Ba/F3-HLA-DQ7.3
T17 MHC II alpha: not shown
T17 MHC II beta: not shown

T12 sequence (P20036 29-222 limits assumed, chain 1 of 4, other chains not shown): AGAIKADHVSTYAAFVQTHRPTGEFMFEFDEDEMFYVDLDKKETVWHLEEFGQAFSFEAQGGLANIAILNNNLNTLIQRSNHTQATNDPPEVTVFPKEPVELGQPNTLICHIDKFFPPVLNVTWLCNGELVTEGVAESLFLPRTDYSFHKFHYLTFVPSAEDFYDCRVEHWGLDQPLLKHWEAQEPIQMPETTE
T12 sequence (P04440 30-225 limits assumed, chain 2 of 4, other chains not shown): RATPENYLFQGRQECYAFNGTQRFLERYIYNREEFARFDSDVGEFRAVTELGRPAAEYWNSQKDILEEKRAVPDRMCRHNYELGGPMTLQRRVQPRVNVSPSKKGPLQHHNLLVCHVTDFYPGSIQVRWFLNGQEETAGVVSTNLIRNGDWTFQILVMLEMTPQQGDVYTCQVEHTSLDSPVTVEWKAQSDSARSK

B1: DQN0344H1013/L0620//DQN0385H1521/L0605-F6.v2 (bispecific antibody, V domains shown)
VH 1: QVQLVESGGGVVQPGRSLRLSCAASGFTFSSAYWMVWVRQAPGQGLEWMGAVYGGSDTTYYAKWTEGRFTISRDTSKNTLYLQMNSLRAEDTAVYYCAREPLNYYYYGELNVWGQGTLVTVSS
VL 1: DIQMTQSPSSLSASVGDRVTITCQATENIYSGLAWYQQKPGKAPKLLIYYVSTLAYGIPARFSGSGSGTDFTLTISSLEPEDFAVYYCQTYEDVSAVTFGQGTKVEIK
VH 2: QVQLVESGGGVVQPGRSLRLSCAASGFTFESWYFMSWVRQAPGKGLEWVASIDTGSGSIDYAEWVEGRFTISRDNSKNTLYLQMNSLRAEDTAVYYCARDIGIDYNFWGPGTLVTVSS
VL 2: DIQMTQSPSSLSASVGDRVTITCQTTQSISSYLNWYQQKPGQPPKLLIYYASTKAEGIPARFSGSGSGTDFTLTISSLEPEDFAVYYCHYGISKVSFGQGTKVEIK
- IC50, HLA-DQ2.2, α1a gliadin TCR, 25 µM 33mer gliadin [1]: 1.16 ng/mL
- IC50, HLA-DQ2.2, α2 gliadin TCR, 1 µM 33mer gliadin [1]: 6.51 ng/mL
- IC50, γ4d gliadin TCR, 100 µM γ4d gliadin [2]: 9.23 ng/mL
- IC50, γ3 gliadin TCR, 100 µM γ3 gliadin [3]: 1.21 ng/mL
- IC50, α1a gliadin TCR, 250 nM 33mer gliadin [4]: 0.6 ng/mL
- IC50, α1b gliadin TCR, 250 nM 33mer gliadin [4]: 1.81 ng/mL
- IC50, α2 gliadin TCR, 250 nM 33mer gliadin [4]: 0.33 ng/mL
- IC50, γ2 gliadin TCR, 250 nM γ2 gliadin [5]: 785 ng/mL
- IC50, ω1 gliadin TCR, 25 µM ω1/2 gliadin [6]: 1.96 ng/mL
- IC50, ω2 gliadin TCR, 250 nM ω1/2 gliadin [6]: 0.2 ng/mL
- IC50, BC hordein TCR, 250 nM BC hordein [7]: 11.4 ng/mL
- IC50, γ1 gliadin TCR, 250 nM γ1 gliadin [8]: 1.9 ng/mL
- IC50, γ4a gliadin TCR, 25 µM γ4a gliadin [9]: 1250 ng/mL

B2: DQN0344H1013/L0620//DQN0385H1270/L0681-F6.v2 (bispecific antibody, V domains shown)
VH 1: B1 VH 1
VL 1: B1 VL 1
VH 2: B1 VH 2 with E30S, S31E
VL 2: B1 VL 2 with S67L
- IC50, HLA-DQ2.2, α1a gliadin TCR, 25 µM 33mer gliadin [1]: 1.62 ng/mL
- IC50, HLA-DQ2.2, α2 gliadin TCR, 1 µM 33mer gliadin [1]: 4.6 ng/mL
- IC50, γ4d gliadin TCR, 100 µM γ4d gliadin [2]: 27.8 ng/mL
- IC50, γ3 gliadin TCR, 100 µM γ3 gliadin [3]: 4.84 ng/mL
- IC50, α1a gliadin TCR, 250 nM 33mer gliadin [4]: 0.63 ng/mL
- IC50, α1b gliadin TCR, 250 nM 33mer gliadin [4]: 1.42 ng/mL
- IC50, α2 gliadin TCR, 250 nM 33mer gliadin [4]: 0.53 ng/mL
- IC50, γ2 gliadin TCR, 250 nM γ2 gliadin [5]: 280 ng/mL
- IC50, ω1 gliadin TCR, 25 µM ω1/2 gliadin [6]: 3.19 ng/mL
- IC50, ω2 gliadin TCR, 250 nM ω1/2 gliadin [6]: 0.49 ng/mL
- IC50, BC hordein TCR, 250 nM BC hordein [7]: 25.2 ng/mL
- IC50, γ1 gliadin TCR, 250 nM γ1 gliadin [8]: 5.85 ng/mL
- IC50, γ4a gliadin TCR, 25 µM γ4a gliadin [9]: 1980 ng/mL

B3: DQN0344H1013/L0620//DQN0385H1270/L0722-F6 (bispecific antibody)
heavy 1: QVQLVESGGGVVQPGRSLRLSCAASGFTFSSAYWMVWVRQAPGQGLEWMGAVYGGSDTTYYAKWTEGRFTISRDTSKNTLYLQMNSLRAEDTAVYYCAREPLNYYYYGELNVWGQGTLVTVSSASTKGPSVFPLAPSSKSTSGGTAALGCLVKDYFPEPVTVSWNSGALTSGVHTFPAVLKSSGLYSLSSVVTVPSSSLGTQTYICNVNHKPSNTKVDKRVEPKSCDKTHTCPPCPAPELRRGPSVFLFPPKPKDTLMISRTPEVTCVVVDVSHEDPEVKFNWYVDGVEVHNAKTKPREEQYNSTYRVVSVLTVLHQDWLNGKEYKCKVSNKALPAPIEKTISKAKGQPREPQVYTLPPSREEMTKNQVSLTCLVKGFYPSDIAVEWESNGQPENNYKTTPPYLDSDGSFFLYSKLTVDKSRWQEGNVFSCSVLHEALHAHYTREELSLSP
light 1: DIQMTQSPSSLSASVGDRVTITCQATENIYSGLAWYQQKPGKAPKLLIYYVSTLAYGIPARFSGSGSGTDFTLTISSLEPEDFAVYYCQTYEDVSAVTFGQGTKVEIKRTVAAPSVFIFPPSDEQLKSGTAEVVCLLNNFYPREAKVQWKVDNALQSGNSEESVTEQDSKDSTYSLSSTLTLSKADYEKHKVYACEVTHQGLSSPVTKSFNRGEC
heavy 2: QVQLVESGGGVVQPGRSLRLSCAASGFTFSEWYFMSWVRQAPGKGLEWVASIDTGSGSIDYAEWVEGRFTISRDNSKNTLYLQMNSLRAEDTAVYYCARDIGIDYNFWGPGTLVTVSSASTKGPSVFPLAPSSKSTSGGTAALGCLVEDYFPEPVTVSWNSGALTSGVHTFPAVLESSGLYSLSSVVTVPSSSLGTKTYICNVNHKPSNTKVDKRVEPKSCDKTHTCPPCPAPELRRGPSVFLFPPKPKDTLMISRTPEVTCVVVDVSHEDPEVKFNWYVDGVEVHNAKTKPREEQYNSTYRVVSVLTVLHQDWLNGKEYKCKVSNKALPAPIEKTISKAKGQPREPQVYTLPPSRKEMTKNQVSLTCLVKGFYPSDIAVEWESNGQPENNYKTTPPYLDSDGSFFLYSKLTVDKSRWQQGNVFSCSVLHEALHAHYTRKELSLSP
light 2: DIQMTQSPSSLSASVGDRVTITCQTTQSISSYLNWYQQKPGQPPKLLIYYASTKAEGIPARFSGSGLGTDFTLTISSLQPEDFAVYYCHYGISKVSFGQGTKVEIKRTVAAPSVFIFPPSDEQLKSGTAKVVCLLNNFYPREAKVQWKVDNALQSGNSKESVTEQDSKDSTYSLSSTLTLSKADYEKHKVYACEVTHQGLSSPVTKSFNRGEC
- IC50, γ4d gliadin TCR, 100 µM γ4d gliadin [10]: 10.1 ng/mL
- IC50, γ3 gliadin TCR, 100 µM γ3 gliadin [11]: 3.31 ng/mL
- IC50, α1a gliadin TCR, 250 nM 33mer gliadin [12]: 0.27 ng/mL
- IC50, α1b gliadin TCR, 250 nM 33mer gliadin [12]: 1.25 ng/mL
- IC50, α2 gliadin TCR, 250 nM 33mer gliadin [12]: 0.33 ng/mL
- IC50, γ2 gliadin TCR, 250 nM γ2 gliadin [13]: 277 ng/mL
- IC50, ω1 gliadin TCR, 25 µM ω1/2 gliadin [14]: 2.17 ng/mL
- IC50, ω2 gliadin TCR, 250 nM ω1/2 gliadin [14]: 0.22 ng/mL
- IC50, BC hordein TCR, 250 nM BC hordein [15]: 9.7 ng/mL
- IC50, γ1 gliadin TCR, 250 nM γ1 gliadin [16]: 1.03 ng/mL
- IC50, γ4a gliadin TCR, 25 µM γ4a gliadin [17]: 1150 ng/mL
- binding result (HLA-DQ5.1 on Ba/F3 cells): no binding (tested: 0.05 ug/mL)
- binding result (HLA-DR on Ba/F3 cells): no binding (tested: 0.05 ug/mL)
- binding result (HLA-DQ6.3 on Ba/F3 cells): no binding (tested: 0.05 ug/mL)
- binding result (HLA-DP on Ba/F3 cells): no binding (tested: 0.05 ug/mL)
- binding result (HLA-DQ2.5 on Ba/F3 cells): no binding (tested: 0.05 ug/mL)
- binding result (HLA-DQ2.2 on Ba/F3 cells): no binding (tested: 0.05 ug/mL)
- binding result (HLA-DQ7.5 on Ba/F3 cells): no binding (tested: 0.05 ug/mL)
- binding result (HLA-DQ8 on Ba/F3 cells): no binding (tested: 0.05 ug/mL)
- binding result (HLA-DQ7.3 on Ba/F3 cells): no binding (tested: 0.05 ug/mL)
